The record followed here is the supplement of paper PMC12764529.

The nature of series [1]: folding stability dG unfold (combined trypsin and chymotrypsin); higher = more stable. In a few lines:
(§1)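 Designed mini-proteins with no cysteine and under 80 residues were kept only if AlphaFold2 dimer inter-PAE was above 15. In a PA-tagged cDNA display construct, they were digested with trypsin and chymotrypsin and then sequenced. K50 was inferred by Bayesian fitting of counts, and unfolding free energy was derived per protease or combined against a sequence-predicted unfolded-state K50 and a shared folded-state K50.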

Series [2] in a line: folding stability dG unfold from trypsin proteolysis; higher = more stable. The essentials: as §1
A short description of series [3]: folding stability dG unfold from chymotrypsin proteolysis; higher = more stable. In a few lines: as §1

± gives the half width of the 95% confidence interval.

Consider “SMGSTTVTVELEFEVEDPSVFPPDTTVDVPEEVIEKLRAEGYTVTEITTTVEPTPSGRVRVRVTMTVRVDSA [r9_465_JUSTAS]”, for which the “folding stability dG unfold” value was 2.93 ± 0.095 kcal/mol in series [1], 2.95 ± 0.05 kcal/mol in series [2] and 2.77 ± 0.049 kcal/mol in series [3].
On to “SMIEELSDEEKVALAKELAEEIKKAREGGKPEEIPELIKRLKEVLEAASPPVQEEVLALIKEIKIPPKELSA [r9_182_JUSTAS]”, for which the “folding stability dG unfold” value was found to be 2.23 ± 0.076 kcal/mol in series [1], 2.82 ± 0.065 kcal/mol in series [2] and 1.7 ± 0.04 kcal/mol in series [3].
The corresponding values for “SMIKPGEKIKKIKLKLENGEEVEATLVKNEDGSLVLFIKVDGEVYVFTFNPDGEIKIEKVSKEEAEKLLKSA [r9_1144_TrROS_Hall]” are 3.4 ± 0.15 kcal/mol, 2.05 ± 0.097 kcal/mol and 3.79 ± 0.046 kcal/mol.
Taken in the same sequence, the figures for “SMITLELTDPATGAKYTLTIDPSTGKAKVTRTPPTGPPVSGTGTIEGNTLTITLYEPSGKPLATLTLPLPSA [r9_665_JUSTAS]” were 5.6 ± 0.13 kcal/mol, 3.89 ± 0.11 kcal/mol and 5.53 ± 0.1 kcal/mol.
Taken in the same sequence, the figures for “SMKEGIEAAIDELKEALEKGEGEVRVVLRFEGFVLEITIKPKGYKIEDIEIEPLPDDIPFIREREEVPPESA [r9_308_TrMRF]” were 1.52 ± 0.24 kcal/mol, 1.23 ± 0.051 kcal/mol and 1.58 ± 0.19 kcal/mol.
As for “SMKEKALEKAKEKAEEIKKKYSNVKVKVEVKVEITPKGEIKITYKVVIEKPEKEKPYWVKYPNGPWKKIGSA [r9_82_JUSTAS]”, the “folding stability dG unfold” value in series [1] turned out to be 1.5 ± 0.55 kcal/mol; in series [2], 1.2 ± 0.24 kcal/mol; in series [3] it was 1.86 ± 0.54 kcal/mol.
The corresponding values for “SMKELVKRIAERFPNFKVKIKPEKTGGKKYRTVRIENPDSGRDMEIVFTKNGDIQIEMPNGRRIPLEDILSA [r9_1176_TrROS]” are 1.36 ± 0.059 kcal/mol, 1.46 ± 0.018 kcal/mol and 1.1 ± 0.077 kcal/mol.
Taken in the same sequence, the figures for “SMKEVEKREFPDGTTVTFSKSSSPVITIKVTTYSPVPNTSELSSSESTYTFPLPPGKPLTLEEVLKKVLESA [r9_614_JUSTAS]” were 1.02 ± 0.13 kcal/mol, 0.54 ± 0.035 kcal/mol and 1.38 ± 0.21 kcal/mol.
The corresponding values for “SMKFTITLSNPVDGTTETIPLDVPLEELVKIIKEAHEKGGTVTITGLPEELAKEIAEKSGLDVSINPAPGSA [r9_1207_JUSTAS]” are 2.85 ± 0.14 kcal/mol, 3.13 ± 0.14 kcal/mol and 2.57 ± 0.053 kcal/mol.
In the case of “SMKIEFLDVKEDGTIVIRLTLLRPDGKPPTKEEAAERAKEIAEILKPYFPDAEFTIEFDPESGEATIVIDSA [r9_485_TrMRF]”, the “folding stability dG unfold” value in series [1] was 4.83 ± 0.33 kcal/mol; in series [2], 4.66 ± 0.57 kcal/mol; in series [3], 4.7 ± 0.15 kcal/mol.
Taken in the same sequence, the figures for “SMKIIIEIEVEPGKTEEEIKEEAEALAKELAKKLGLPKEAKVKIEKVKLEDGKLRYIITIEVDGKTIEFESA [r9_776_TrROS_Hall]” were 3.75 ± 0.24 kcal/mol, 3.72 ± 0.29 kcal/mol and 3.63 ± 0.064 kcal/mol.
Taken in the same sequence, the figures for “SMKIKSIKIEPIRIGDEEYFLIPIEVDGEEIPPEEVKRLVEELFEKLGLPLDPVLLEDPESDIVLVLARGSA [r9_717_TrMRF]” were 1.48 ± 0.16 kcal/mol, 1.82 ± 0.053 kcal/mol and 1.34 ± 0.11 kcal/mol.
Consider “SMKITATETPVGDKTTVTITVTIDPKEFPNKPPTEEFYKKIAEELMKKLGLKTYNISKTSSNTYTITIVDSA [r9_883_JUSTAS]”, for which the results for the “folding stability dG unfold” value in series [1], in series [2] and in series [3] were 2.5 ± 0.049 kcal/mol, 2.42 ± 0.061 kcal/mol and 2.5 ± 0.025 kcal/mol, respectively.
As to “SMKITIVENEDGSLKIKVYFKDTGKVVEKTFEKGETIEEQVKKLAEELEKELGLEVVDVEIVKLPPPEKPSA [r9_1205_TrROS_Hall]”, the “folding stability dG unfold” value in series [1] turned out to be 3.57 ± 0.12 kcal/mol; in series [2], 2.63 ± 0.23 kcal/mol; in series [3] it was 3.74 ± 0.096 kcal/mol.
The corresponding values for “SMKITLEKGNYKIEIYKHPETGEIIAKVYDKNGKLVAVAHIKIEVEPDKDGKKIIKKIEIHVHILKEDPKSA [r9_262_TrMRF]” are 3.02 ± 0.31 kcal/mol, 2.58 ± 0.22 kcal/mol and 3.77 ± 0.11 kcal/mol.
Take “SMKKILIIVPKEMSEEEVEALVKELLEKLGLPEGAEVEILTEEELEKNPELKKKLEEAEKKGADLVIIIPSA [r9_1147_TrROS_Hall]”: the “folding stability dG unfold” value in series [1] was 3.12 ± 0.32 kcal/mol; in series [2], 3.39 ± 0.32 kcal/mol; in series [3], 3 ± 0.2 kcal/mol.
Taken in the same sequence, the figures for “SMKKIVLIYPESVSPEEAEKIAEEILKKLGLKKGSPVTILPLSEYESNPEMRARIEEAKKKGADIIIEVKSA [r9_1147_JUSTAS]” were 2.78 ± 0.17 kcal/mol, 2.91 ± 0.15 kcal/mol and 2.8 ± 0.1 kcal/mol.
The corresponding values for “SMKKNTLTLTVKVKVTVTVVKKKKDGKEEVVKKETVEVTVKVTFLSKEELEKLKKELEKLKKELEELKKKSA [r9_1192_TrROS_Hall]” are 3.39 ± 0.75 kcal/mol, 2.72 ± 0.27 kcal/mol and 4.7 ± 0.27 kcal/mol.
